From PMC12363188 (2025)

Key:
[1] = target: T1, SARS-CoV-2 S-RBD (residues 330 to 530) (SARS-CoV-2, UniProt P0DTC2 330-530); experiment: SPR
[2] = target: T1, SARS-CoV-2 S-RBD (residues 330 to 530); experiment: SPR; remark: listed apart in the source

B1: Rhinolophus pusillus bat ACE2 ectodomain (residues 18 to 615) (domain or fragment)
chain: QSITEDKAKKFLNDFNSEAEDLSYQSSLASWDYNTNISDENVQKMDEAGAKWSAFYEEQSKIAKNYPLEEIQTDIVKRQLQILQQSGSPVLSEDKSKRLNSILNAMSTIYSTGKVCKPNNPQECLLLEPGLDNIMGTSKDYHERLWAWEGWRAEVGKQLRPLYEEYVVLKNEMARGYHYEDYGDYWRRDYETEESSGPGYSRDQLMKDVDRIFTEIKPLYEHLHAYVRAKLMDTYPLHISPTGCLPAHLLGDMWGRFWTNLYPLTVPFGQKPNIDVTDEMVKQGWDANRIFKEAEKFFVSVGLPNMTEGFWNNSMLTEPGDGRKVVCHPTAWDLGKGDFRIKMCTKVTMEDFLTAHHEMGHIQYDMAYASQPYLLRNGANEGFHEAVGEVMSLSVATPKHLKTMGLLSPDFREDDETEINFLLKQALNIVGTLPFTYMLEKWRWMVFKGEIPKEEWMKKWWEMKREIVGVVEPVPHDETYCDPASLFHVANDYSFIRYYTRTIFEFQFHEALCRIAQHNGPLHKCDISNSTDAGKKLHQMLSVGKSQAWTKTLEDIVGSRNMDVGPLLRYFKPLYTWLQEQSRKSYVGWNTDWSPYSD
Q: Which koff [1] does the source give for B1 here?
A: The koff was 0.00152 s⁻¹.

Q: What about the Kd [2] of the same binder?
A: The Kd was 45.3 nM.
